The test addresses Recombinant histidine-tagged human WRN (human) (UniProt Q14191).

Chain of Recombinant histidine-tagged human WRN (human) (Q14191 whole entry): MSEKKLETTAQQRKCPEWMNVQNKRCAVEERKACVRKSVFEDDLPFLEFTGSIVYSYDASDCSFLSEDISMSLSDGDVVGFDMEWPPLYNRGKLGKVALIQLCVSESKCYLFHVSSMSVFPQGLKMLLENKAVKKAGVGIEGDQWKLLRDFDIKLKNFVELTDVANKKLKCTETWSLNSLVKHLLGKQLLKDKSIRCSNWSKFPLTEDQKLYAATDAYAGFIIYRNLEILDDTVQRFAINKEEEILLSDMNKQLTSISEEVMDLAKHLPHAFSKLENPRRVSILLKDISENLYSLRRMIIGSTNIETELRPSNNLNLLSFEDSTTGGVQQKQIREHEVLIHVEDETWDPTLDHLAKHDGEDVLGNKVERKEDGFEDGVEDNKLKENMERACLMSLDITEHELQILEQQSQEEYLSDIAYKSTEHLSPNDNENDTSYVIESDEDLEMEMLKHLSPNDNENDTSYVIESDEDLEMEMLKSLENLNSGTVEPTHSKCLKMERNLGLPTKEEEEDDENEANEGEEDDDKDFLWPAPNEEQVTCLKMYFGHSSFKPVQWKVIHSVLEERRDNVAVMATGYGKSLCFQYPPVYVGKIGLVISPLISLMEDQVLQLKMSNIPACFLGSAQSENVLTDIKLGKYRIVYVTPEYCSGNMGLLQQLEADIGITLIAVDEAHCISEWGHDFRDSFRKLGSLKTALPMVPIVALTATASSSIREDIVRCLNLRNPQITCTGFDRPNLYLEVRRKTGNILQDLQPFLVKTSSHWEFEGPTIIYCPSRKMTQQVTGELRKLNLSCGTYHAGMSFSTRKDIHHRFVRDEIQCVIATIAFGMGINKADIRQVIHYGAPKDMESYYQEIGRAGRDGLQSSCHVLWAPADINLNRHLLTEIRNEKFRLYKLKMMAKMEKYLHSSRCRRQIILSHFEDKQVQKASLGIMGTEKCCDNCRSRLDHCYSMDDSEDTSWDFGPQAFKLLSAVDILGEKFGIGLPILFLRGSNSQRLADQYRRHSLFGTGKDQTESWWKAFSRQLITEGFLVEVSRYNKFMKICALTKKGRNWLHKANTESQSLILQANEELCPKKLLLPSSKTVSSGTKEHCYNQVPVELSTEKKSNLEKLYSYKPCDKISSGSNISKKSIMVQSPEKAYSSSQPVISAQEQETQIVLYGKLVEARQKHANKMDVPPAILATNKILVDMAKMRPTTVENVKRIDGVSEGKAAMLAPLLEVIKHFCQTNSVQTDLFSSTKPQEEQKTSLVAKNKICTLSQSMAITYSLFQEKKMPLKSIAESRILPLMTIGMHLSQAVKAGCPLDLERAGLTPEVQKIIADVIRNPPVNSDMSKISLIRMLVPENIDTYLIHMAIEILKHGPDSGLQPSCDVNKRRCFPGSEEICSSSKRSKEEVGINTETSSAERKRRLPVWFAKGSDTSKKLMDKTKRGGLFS

Take “recombinant human p300 (histone acetyltransferase enzyme p300), Q09472 1-2414”: the WRN helicase activity on a 22 bp forked duplex with p300 in the absence of acetyl CoA, at the highest WRN concentration was determined as 2 fold.

The values are drawn from PMC2276247.
